From paper doi:10.1101/2020.09.10.292318 (bioRxiv, 2020)

How the values were obtained:
[1] = target: SARS-CoV-2 nucleocapsid (N) protein, N-FL (SARS-CoV-2 (reference sequence; isolate …, UniProt P0DTC9); assay: SPR
SARS-CoV N protein = SARS-CoV N protein (SARS-CoV (strain ; reference …, UniProt P59595); assay: SPR

B1: mAb nCoV396 (antibody, V domains shown)
VH: QVQLVESGGGVVQPGRSLRLSCAASGFTFSSYIMHWVRQAPGKGLEWVAVISYDGSNEAYADSVKGRFTISRDNSKNTLYLQMSSLRAEDTGVYYCARETGDYSSSWYDSWGRGTLVTVSS
VL: QLVLTQSPSASASLGASVKLTCTLSSGHSNYAIAWHQQQPEKGPRYLMKVNSDGSHTKGDGIPDRFSGSSSGAERYLTISSLQSEDEADYYCQTWGTGIQVFGGGTKLTVL
[1]
  Kd: 1.02 nM
SARS-CoV N protein
  Kd: 7.4 nM
